± gives the uncertainty stated by the source.
Assay: self-splicing fitness, log relative to wild type (ln ratio); higher = more splicing; Tetrahymena group I intron in knt gene, E. coli kanamycin selection, DiMSum; sequences stand for … in CUCUCU…GGAGGGAAAAGUUAUCAGGCAUGCACCUGGUAGCUAGUCUUUAAACCAAUAGAUUGCAUCGGUUUAAAAGGCAAGACCGUCAAAUUGCGGGAAAGGGGUCAACAGCCGUUCAGUACCAAGUCUCAGGGGAAACUUUGAGAUGGCCUUGCAAAGGGUAUGGUAAUAAGCUGACGGACAUGGUCCUAACCACGCAGCCAAGUCCUAAGUCAACAGAUCUUCUGUUGAUAUGGAUGCAGUUCACAGACUAAAUGUCGGUCGGGGAAGAUGUAUUCUUCUCAUAAGAUAUAGUCGGACCUCUCCUUAAUGGGAGCUAGCGGAUGAAGUGAUGCAACACUGGAGCCGCUGGGAACUAAUUUGUAUGCGAAAGUAUAUUGAUUAGUUUUGGAGUACUCGUGGUCG
Summary of the method: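 Six replicate transformations of E. coli BL21(DE3) with a pET-22b(+) library were grown overnight at 37°C or 30°C. The library randomised all eight P1ex-region intron nucleotides, the intron lying in the knt kanamycin-resistance gene, and plates were LB agar with or without 25 μg/mL kanamycin plus 100 μg/mL carbenicillin, 50 μM IPTG and 0.2% rhamnose. Pooled colonies were amplicon-sequenced on an Illumina HiSeq 2500, and fitness is the DiMSum error-weighted combination of wild-type-normalised replicate fold changes, kanamycin versus none.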

Sequence | self-splicing fitness (ln) (30 °C) | self-splicing fitness (ln) (37 °C)
CUGUAGCAAUAUUACGCCUU | -3.46 ± 0.35 | -2.74 ± 0.3
ACGAAGCAAUAUUACGUAGC | -3.19 ± 0.17 | -1.16 ± 0.14
GCUAAGCAAUAUUACGCAGA | -2.53 ± 0.26 | -0.61 ± 0.21
CAGCAGCAAUAUUACGCACG | -0.667 ± 0.09 | -0.264 ± 0.1
GGACAGCAAUAUUACGCUGA | -2.21 ± 0.16 | -1.51 ± 0.15
AACUAGCAAUAUUACGACGG | -2.21 ± 0.14 | -0.86 ± 0.21
CAGAAGCAAUAUUACGGAGA | – | -2.16 ± 0.24
AAUAAGCAAUAUUACGGUCU | -0.462 ± 0.055 | 0.0374 ± 0.073
AUGAAGCAAUAUUACGAGUG | -1.22 ± 0.056 | -0.514 ± 0.081
GAAUAGCAAUAUUACGGGAG | – | -3.35 ± 0.33
UCCGAGCAAUAUUACGAACA | -3.11 ± 0.47 | –
AUUAAGCAAUAUUACGUCCU | -0.24 ± 0.097 | 0.264 ± 0.12
GAGUAGCAAUAUUACGACCU | 0.288 ± 0.14 | -1.02 ± 0.16
CCCCAGCAAUAUUACGCAUC | -3.84 ± 0.31 | -2.68 ± 0.3
GUUCAGCAAUAUUACGGUUA | -0.817 ± 0.098 | -0.352 ± 0.082
UGUUAGCAAUAUUACGCUCU | -1.66 ± 0.16 | -0.371 ± 0.16
GAAAAGCAAUAUUACGAGUG | -1.08 ± 0.073 | -0.813 ± 0.094
UUAUAGCAAUAUUACGGCUU | -1.99 ± 0.17 | -0.583 ± 0.18
CCGUAGCAAUAUUACGUGAA | -3.73 ± 0.18 | -2.34 ± 0.18
GGGGAGCAAUAUUACGAGCG | -2.37 ± 0.25 | -1.53 ± 0.22
UGGGAGCAAUAUUACGGCAC | – | -0.43 ± 0.35
GACAAGCAAUAUUACGCGGC | -2.75 ± 0.17 | -3.11 ± 0.21
CUUCAGCAAUAUUACGCGUC | -2.6 ± 0.23 | -0.821 ± 0.14
GCGCAGCAAUAUUACGGGUG | -1.87 ± 0.083 | -1.65 ± 0.11
GUGAAGCAAUAUUACGAGGC | -2.59 ± 0.25 | -1.1 ± 0.22

Sequence | self-splicing fitness (ln) (30 °C) | self-splicing fitness (ln) (37 °C)
AUACAGCAAUAUUACGGCGC | -0.801 ± 0.1 | 0.447 ± 0.15
CGCCAGCAAUAUUACGAACA | -3.55 ± 0.26 | -0.716 ± 0.11
GUAGAGCAAUAUUACGGGAG | -3.15 ± 0.47 | -1.85 ± 0.38
ACCGAGCAAUAUUACGGGUU | -2.85 ± 0.12 | -2.54 ± 0.18
CUUUAGCAAUAUUACGAUGA | -3.2 ± 0.25 | -2.01 ± 0.18
CGUGAGCAAUAUUACGUCGG | -0.475 ± 0.11 | -0.606 ± 0.12
UUCUAGCAAUAUUACGACUU | -1.77 ± 0.24 | -1.59 ± 0.19
UUCGAGCAAUAUUACGGUAA | -1.85 ± 0.25 | -1.55 ± 0.19
GGGAAGCAAUAUUACGGUAC | -1.47 ± 0.25 | -1.08 ± 0.27
GGGUAGCAAUAUUACGGAAG | -3.46 ± 0.35 | -1.87 ± 0.45
UCCUAGCAAUAUUACGUAGA | -2.36 ± 0.05 | -0.729 ± 0.069
UAGCAGCAAUAUUACGAGUA | -1.39 ± 0.14 | -0.225 ± 0.14
AGACAGCAAUAUUACGCUAU | -3.31 ± 0.18 | -0.948 ± 0.12
CCAAAGCAAUAUUACGAUCG | 0.0481 ± 0.058 | -0.183 ± 0.075
GCGAAGCAAUAUUACGACGA | 0.0165 ± 0.18 | 0.163 ± 0.2
AAAAAGCAAUAUUACGCUAA | -2.36 ± 0.15 | -1.35 ± 0.13
UUGUAGCAAUAUUACGGUGG | -1.75 ± 0.12 | -1.28 ± 0.17
AAUAAGCAAUAUUACGUGGC | -2.72 ± 0.22 | -2.82 ± 0.36
GUUAAGCAAUAUUACGCAGG | -3.11 ± 0.38 | -2.47 ± 0.31
CGGCAGCAAUAUUACGUUCA | -0.358 ± 0.068 | 0.0795 ± 0.082
AAAUAGCAAUAUUACGCCUU | -0.206 ± 0.073 | 0.557 ± 0.1
UCUAAGCAAUAUUACGACCC | – | -0.661 ± 0.44
UCAGAGCAAUAUUACGGUAA | -3.7 ± 0.47 | -1.85 ± 0.41
GCCUAGCAAUAUUACGACCC | -1.59 ± 0.21 | -0.272 ± 0.25
CAUUAGCAAUAUUACGGGGA | -2.73 ± 0.21 | -1.77 ± 0.26

Sequence | self-splicing fitness (ln) (30 °C) | self-splicing fitness (ln) (37 °C)
CCAUAGCAAUAUUACGCUGU | -4.23 ± 0.39 | -2.54 ± 0.29
UAUUAGCAAUAUUACGUGCU | -2.12 ± 0.12 | -2.04 ± 0.15
GUGGAGCAAUAUUACGACAU | -2.402 ± 0.022 | -1.48 ± 0.038
GAAGAGCAAUAUUACGCCAA | – | -2.54 ± 0.45
CACUAGCAAUAUUACGGACC | – | -1.8 ± 0.24
AGGUAGCAAUAUUACGCCAU | -1.89 ± 0.021 | -0.939 ± 0.036
GUGAAGCAAUAUUACGUUCA | -1.45 ± 0.078 | -0.809 ± 0.09
UGGUAGCAAUAUUACGGAGU | -2.76 ± 0.27 | –
UAGCAGCAAUAUUACGCCUC | -3.28 ± 0.16 | -1.11 ± 0.12
AGGGAGCAAUAUUACGGGGC | – | -0.893 ± 0.36
AAGGAGCAAUAUUACGAUCG | -1.99 ± 0.19 | -1.8 ± 0.27
UGAGAGCAAUAUUACGAUUG | -2.57 ± 0.27 | -1.14 ± 0.27
GCUGAGCAAUAUUACGACAU | -2.265 ± 0.018 | -1.08 ± 0.035
UUGCAGCAAUAUUACGGCGU | -0.34 ± 0.051 | 0.352 ± 0.065
GACCAGCAAUAUUACGGGGG | -1.92 ± 0.08 | -1.17 ± 0.089
CCGGAGCAAUAUUACGUGGG | -3.39 ± 0.31 | -2.78 ± 0.38
GCACAGCAAUAUUACGUAAG | -1.38 ± 0.06 | -0.717 ± 0.079
GGAAAGCAAUAUUACGUACG | -0.792 ± 0.097 | -0.786 ± 0.11
UUUAAGCAAUAUUACGAGAG | -1.49 ± 0.11 | -1.13 ± 0.12
UGUCAGCAAUAUUACGAAAU | -2.21 ± 0.19 | -1.18 ± 0.19
CCUAAGCAAUAUUACGCGUU | -3.27 ± 0.15 | -2.69 ± 0.16
AGUUAGCAAUAUUACGCUGA | -3.13 ± 0.3 | -2.05 ± 0.27
GACAAGCAAUAUUACGAGGG | -4.27 ± 0.18 | -2.81 ± 0.15
UAGAAGCAAUAUUACGGUUA | 0.144 ± 0.094 | -0.007 ± 0.086
AAAAAGCAAUAUUACGUUCC | -1.3 ± 0.098 | -0.521 ± 0.14

Sequence | self-splicing fitness (ln) (30 °C) | self-splicing fitness (ln) (37 °C)
UACAAGCAAUAUUACGAAUG | -0.773 ± 0.065 | -0.319 ± 0.086
AUGAAGCAAUAUUACGUAUA | -1.53 ± 0.11 | -0.647 ± 0.11
CGUGAGCAAUAUUACGUCUA | -2.99 ± 0.37 | -1.59 ± 0.21
GCUUAGCAAUAUUACGGUCU | -0.834 ± 0.083 | -0.0218 ± 0.11
GAUAAGCAAUAUUACGCUAG | -2.45 ± 0.15 | 0.0994 ± 0.13
GCAUAGCAAUAUUACGGCGA | -0.526 ± 0.15 | -0.873 ± 0.15
CGAUAGCAAUAUUACGUAGU | -3.93 ± 0.18 | -1.06 ± 0.1
GGCAAGCAAUAUUACGGAGA | -2.37 ± 0.24 | -2.22 ± 0.27
UGAGAGCAAUAUUACGUUUA | -3.46 ± 0.39 | –
CCUCAGCAAUAUUACGCUCA | -2.6 ± 0.39 | -1.74 ± 0.22
CUCUAGCAAUAUUACGAUGU | -3.53 ± 0.22 | -2.92 ± 0.25
AUCAAGCAAUAUUACGGUAU | -1.93 ± 0.063 | -0.833 ± 0.077
ACCCAGCAAUAUUACGACAG | -3.36 ± 0.12 | -1.67 ± 0.11
CCGAAGCAAUAUUACGGGUU | -4.22 ± 0.21 | -2.64 ± 0.16
GUUCAGCAAUAUUACGCCGU | -1.57 ± 0.1 | -0.339 ± 0.12
UAGUAGCAAUAUUACGUGUU | -3.65 ± 0.21 | -1.95 ± 0.15
UUGAAGCAAUAUUACGCGAA | -0.789 ± 0.08 | -0.585 ± 0.093
AGCGAGCAAUAUUACGACAU | -1.32 ± 0.015 | -0.624 ± 0.034
AGCUAGCAAUAUUACGUUGC | -3.91 ± 0.25 | -3.13 ± 0.28
GCUUAGCAAUAUUACGAAAG | -1.52 ± 0.13 | -0.485 ± 0.19
CACUAGCAAUAUUACGCAAA | -2.95 ± 0.21 | -2.46 ± 0.27
UUGAAGCAAUAUUACGCGUU | -3.35 ± 0.15 | -0.906 ± 0.12
ACGGAGCAAUAUUACGUGUG | -3.92 ± 0.19 | -2.56 ± 0.14

Source: the supplement of paper PMC7877785
